Assay results from patent US20200331998A1 (ALLOGENE THERAPEUTICS, published 2020).

T1: hCD19-HIS-AVI (human, UniProt P15391 20-291, limits assumed)
T1 construct: not shown: His and Avi tags
T1 sequence (looked up): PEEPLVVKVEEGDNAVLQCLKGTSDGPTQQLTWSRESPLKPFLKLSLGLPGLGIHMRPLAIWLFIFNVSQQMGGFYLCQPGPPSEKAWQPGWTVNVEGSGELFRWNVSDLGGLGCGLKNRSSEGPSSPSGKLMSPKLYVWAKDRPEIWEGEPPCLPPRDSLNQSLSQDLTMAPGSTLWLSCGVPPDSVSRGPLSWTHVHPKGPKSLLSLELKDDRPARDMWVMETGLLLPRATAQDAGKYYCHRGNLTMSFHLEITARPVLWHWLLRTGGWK


Assays:
[1] = target: T1, hCD19-HIS-AVI; assay: SPR (Biacore, 25° C.) sandwich assay with buffer/hCD19 injections
Description: (§1) Anti-m4G7 purified sub-clone antibodies were tested for binding to m4G7-hFab. Blocking effect was determined using a sandwich assay and binding confirmation to […] was determined using a Biacore assay at 25° C. […] Sensor chip CAP (CAPture chip) #505 was used as a surface. After rehydrating the sensor chip CAP with water at 42° C. for 1 hour, the chip was dried with compressed air. The surface of the chip was conditioned using triplicate 1 min injections of regeneration solution at 10 μl/min. The regeneration solution included 3 parts of Regeneration Stock 1 (8 M guanidine-HCl) with 1 part Regeneration Stock 2 (1 M NaOH). Capture of Biotin CAPture reagent for 5 min at 2 μl/min was followed by capture of biotinylated Fusion E2153 anti-m4G7 purified sub-clones antibodies and control antibodies at 10 μg/ml for 1 min at 10 μl/min.
The blocking effect of m4G7-hFab binding to hCD19 by the purified anti-Ids sub-clones from Fusion E2153 was determined by the sandwich assay at 25° C. Sample 1 was injected for 2 min at 30 μL/min followed by 10 sec in buffer then Sample 2 was injected for 2 min at 30 μL/min followed by 3 min dissociation: […]

[2] = target: T2, m4G7 hFab 8×His (human); assay: Biacore SPR at 25 °C, biotinylated antibody captured on CAP chip, m4G7-hFab injected, 1:1 Binding fit printed under the sensorgram; the text (Table 3) calls this clone very high affinity, outside instrument limits
T2 construct: Immunogen and Biacore analyte; also called 4G7-human Fab-8×His fusion protein (E2153); m4G7-Fab; not shown: It lies between the VH and the 8xHis tag and is left out
T2 sequence (VH, as listed by the source limits assumed, chain 1 of 2): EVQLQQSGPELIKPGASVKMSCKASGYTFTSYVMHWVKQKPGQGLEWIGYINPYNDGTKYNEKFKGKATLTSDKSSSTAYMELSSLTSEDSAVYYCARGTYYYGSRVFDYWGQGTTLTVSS
T2 sequence (VL, as listed by the source limits assumed, chain 2 of 2): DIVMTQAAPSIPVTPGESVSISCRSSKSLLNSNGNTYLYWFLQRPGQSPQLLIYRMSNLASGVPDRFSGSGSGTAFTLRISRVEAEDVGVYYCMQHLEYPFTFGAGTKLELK
Description: as §1
(§2) For the kinetics assay, the buffer and m4G7-hFab at 1 nM, 10 nM, and 100 nM were injected for 2 min at 30 μL/min followed by 5 min dissociation.

[3] = target: T2, m4G7 hFab 8×His; assay: SPR (Biacore, 25° C.), biotinylated antibody captured on CAP chip, m4G7-hFab as analyte
Description: as §1, §2

Row | Binder | binding result [1] | Kd [2] [pM] | koff [2] [s⁻¹] | kon [2] [M⁻¹ s⁻¹] | Kd [3] [nM] | koff [3] [s⁻¹] | kon [3] [M⁻¹ s⁻¹] | t1/2 [3] [min]
1 | E2153.4D7.E11 (antibody, V domains shown, Mouse hybridoma antibody; Biotinylated for the Biacore assays; PE-labelled in flow cytometry; also called Clone E11) VH: QVQLQQSGAELVRPGTSVKVSCKASGYAFTNYLIEWVKQRPGQGLEWIGVITPGSGGSNYNEKFKGKATLTADKSSSTAYMQLSSLTSDDSAVYFCARWLDYDWFAYWGQGTLVTVSA VL: DIKMTQSPSSMYASLGERVTITCKASQDINSYLSWFQQKPGKSPKTLIYRANRLVDGVPSRFSGSGSGQDYSLTISSLEYEDMGIYYCRQCDEFPSTFGGGTKLEIK | no binding (tested: 300 nM) | 9.36 | 3.65e-05 | 3.9e+06 |  |  |  | 
2 | E2153.1C4.E2 (antibody, V domains shown, Mouse hybridoma antibody; Biotinylated for the Biacore assays; also called Clone E2) VH: QVQLQQSGAELVKPGASVKVSCKAFGYTFTTYPIEWMRQNHGKSLEWIGNFHPYNDDTRYNEKFKDKAKLTVEKSSSTVYLELSRLTYDDSAVYYCTRGNDYDLYGMDYWGQGTSVTVSS VL: DIKMTQFPSSMYASLGERVTITCKASQDINTYLTWFQQKPGKSPKTLIYRANRLVDGVPSRFSGSGSGQDYSLTISSLEYEDMGIYYCLQCDDFPLTFGAGTKLELK | no binding (tested: 300 nM) |  |  |  | 0.0167 | 0.000128 | 7.65e+06 | 90
3 | E2153.1D9.B4 (antibody, V domains shown, Mouse hybridoma antibody; Biotinylated for the Biacore assays; also called Clone B4) VH: QVQLQQSGAELVRPGTSVKVSCKASGYAFTNYLIEWIKQRPGQGLEWIGVINPGSGGINYNEKFKGKATLTSDKSSSTAYMQLSSLTSDDSAVYFCARWLDYDWFAYWGQGTLVTVSA VL: DIKMTQFPSSMYASVGERVTITCKASQDINSYLSWFQQKPGKSPKTLIYRANRLVDGVPSRFSGSGSGQDYSLTISSLEYEDMGIYYCLQCDEFPFTFGGGTKLEIK | no binding (tested: 300 nM) | 4.89 | 1.58e-05 | 3.22e+06 |  |  |  | 
4 | E2153.2H8.A8 (antibody, V domains shown, Mouse IgG1/kappa hybridoma antibody; Biotinylated for the Biacore assays; also called Clone A8; anti-UCART19 idiotype antibody A8) VH: QVQLQQSGAELVKPGASVKVSCKAFGYTFTTYPIEWMRQNHGKSLEWIGNFHPYNDDTRYNEKFKDKAKLTVEKSSSTVYLELSRLTYDDSAVYYCTRGNDYDLYGMDYWGQGTSVTVSS VL: DIKMTQSPSSMYASLGERVTITCKASQDINTYLTWFQQKPGKSPKTLIYRANRLVDGVPSRFSGSGSGQDYSLTISSLEYEDMGIYYCLQCDDFPLTFGAGTKLELKR | no binding (tested: 300 nM) |  |  |  | 0.0144 | 0.000106 | 7.35e+06 | 109
